For assay [1], the target named is T1, Recombinant human angiotensin-converting enzyme 2 (ACE2) protein, carrier-free (R&D Systems) (human), Q9BYF1.
Assay [2] deals with T1, Recombinant human …. Nature of the assay: calculated reference value for the zeta potential of the mixture.

T1 sequence (Q9BYF1 18-740 limits assumed): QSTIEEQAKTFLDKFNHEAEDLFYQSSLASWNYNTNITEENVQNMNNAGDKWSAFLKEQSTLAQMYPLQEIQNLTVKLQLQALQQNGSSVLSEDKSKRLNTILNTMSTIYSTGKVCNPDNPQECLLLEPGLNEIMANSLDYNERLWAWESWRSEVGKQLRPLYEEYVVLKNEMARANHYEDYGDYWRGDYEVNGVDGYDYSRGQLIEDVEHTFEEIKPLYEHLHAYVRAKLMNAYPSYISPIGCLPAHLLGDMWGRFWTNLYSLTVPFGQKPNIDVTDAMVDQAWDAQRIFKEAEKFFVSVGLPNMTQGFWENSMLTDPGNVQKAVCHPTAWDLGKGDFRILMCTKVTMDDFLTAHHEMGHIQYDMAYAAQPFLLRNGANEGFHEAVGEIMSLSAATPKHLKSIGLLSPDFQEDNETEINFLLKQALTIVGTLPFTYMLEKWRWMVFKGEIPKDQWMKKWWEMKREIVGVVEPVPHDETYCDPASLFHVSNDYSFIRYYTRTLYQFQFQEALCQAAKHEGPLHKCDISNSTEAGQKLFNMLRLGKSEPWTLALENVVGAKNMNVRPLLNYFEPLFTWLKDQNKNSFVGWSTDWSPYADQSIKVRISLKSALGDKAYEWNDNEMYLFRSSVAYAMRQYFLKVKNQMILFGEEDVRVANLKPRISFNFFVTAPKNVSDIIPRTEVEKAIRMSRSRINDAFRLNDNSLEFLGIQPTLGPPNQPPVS

In the case of VVVGKKGGYPKYPCTGSGSDGDELCGWYPHWPYR (modifications not checked) [sLigand peptide amphiphile (scrambled analog of Ligand)], the zeta potential of the mixture, measured in assay [1] was -19.2 mV. Also, in assay [2], the intensity-averaged zeta potential calculated assuming no interaction was -19 mV.
